Laboratory results: article PMC11900463
Positions count from the first letter of the chain named. Names and notes keep the numbering of the source.

T1: sCPR (truncated soluble form of rat NADPH–cytochrome P450 reductase) (rat) (UniProt P00388)
T1 sequence (P00388 whole entry, looked up): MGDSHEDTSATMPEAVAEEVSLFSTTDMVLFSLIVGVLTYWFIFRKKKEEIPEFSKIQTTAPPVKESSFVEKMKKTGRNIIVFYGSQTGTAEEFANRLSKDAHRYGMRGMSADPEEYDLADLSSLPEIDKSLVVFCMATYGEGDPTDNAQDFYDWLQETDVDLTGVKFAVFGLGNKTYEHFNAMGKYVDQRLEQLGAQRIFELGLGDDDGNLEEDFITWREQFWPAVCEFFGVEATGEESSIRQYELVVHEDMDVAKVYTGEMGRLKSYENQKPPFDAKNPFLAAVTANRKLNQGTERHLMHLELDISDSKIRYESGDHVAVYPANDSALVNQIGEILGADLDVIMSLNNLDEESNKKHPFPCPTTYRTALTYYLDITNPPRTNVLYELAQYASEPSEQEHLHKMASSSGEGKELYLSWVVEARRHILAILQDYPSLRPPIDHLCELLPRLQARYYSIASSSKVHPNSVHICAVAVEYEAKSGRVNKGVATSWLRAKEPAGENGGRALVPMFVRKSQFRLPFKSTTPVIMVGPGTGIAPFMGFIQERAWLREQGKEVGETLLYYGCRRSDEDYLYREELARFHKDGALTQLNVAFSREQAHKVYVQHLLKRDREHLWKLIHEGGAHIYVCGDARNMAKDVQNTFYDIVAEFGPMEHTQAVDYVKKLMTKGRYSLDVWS

B1: 6xHis-tagged C281S tsHO-2 (enzyme)
chain: MADLSELLKEGTKEAHDRAENTQFVKDFLKGNIKKELFKLATTALYFTYSALEEEMDRNKDHPAFAPLYFPTELHRKEALIKDMEYFFGENWEEQVKCSEAAQKYVDRIHYVGQNEPELLVAHAYTRYMGDLSGGQVLKKVAQRALKLPSTGEGTQFYLFEHVDNAQQFKQFYRARMNALDLSMKTKERIVEEANKAFEYNMQIFSELDQAGSMLTKETLEDGLPVHDGKGDVRKCPFYAAQPDKGTLGGSNSPFRTAMAVLRK
B2: 6xHis-tagged C264S tsHO-2 (enzyme)
chain: B1 chain with C236S, S253C
B3: 6xHis-tagged C264S/C281S tsHO-2 (enzyme)
chain: B1 chain with C236S

target: T1, sCPR (truncated soluble form of rat NADPH–cytochrome P450 reductase) (rat)

Row | apparent reduction rate constant of heme by sCPR (formation of the CO-bound heme complex, CO-saturated, anaerobic, 30 °C; non-His-tagged enzyme) | enzymatic activity (rate of bilirubin formation at 37 °C with 2.9 μM sCPR, 40 μM heme, NADPH; non-His-tagged enzyme) | Molecule
1 | 106 min⁻¹ | 14.3 min⁻¹ | 6xHis-tagged ΔHRM tsHO-2 (from UniProt P23711 29-292) (enzyme)
2 | 89.6 min⁻¹ | 7.32 min⁻¹ | B1
3 | 93.2 min⁻¹ | 4.91 min⁻¹ | B2
4 | 113 min⁻¹ | 11.2 min⁻¹ | B3
